Results on four molecules are retold here after patent US20220380459A1 (DRAGONFLY THERAPEUTICS, published 2022).

Test [1] addresses T1, human NKG2D expressed on cells (human, UniProt P26718 1-216).
T1 construct: whole, on cells; also called hNKG2D; EL4-hNKG2D
T1 sequence (looked up): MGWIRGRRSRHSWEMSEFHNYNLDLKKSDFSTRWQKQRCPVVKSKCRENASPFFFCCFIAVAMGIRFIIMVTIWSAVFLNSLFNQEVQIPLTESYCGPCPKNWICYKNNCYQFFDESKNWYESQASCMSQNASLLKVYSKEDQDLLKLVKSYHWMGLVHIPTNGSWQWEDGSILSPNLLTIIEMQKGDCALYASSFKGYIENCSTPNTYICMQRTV
The test can be described thus: flow cytometry on EL4-hNKG2D cells. For orientation: A flow cytometer gives signals particle by particle.
Experimental: EL4-hNKG2D cells were incubated with the diluted TriNKET or mAb solutions. Binding of the TriNKET or mAb to the EL4 cells was detected using a fluorophore-conjugated anti-human IgG secondary antibody. The cells were analyzed by flow cytometry, and fold over background values were calculated by normalizing binding MFI to the MFI of a control group in which the cells were incubated with the secondary antibody only.

The target of test [2] is T2, human CD33 expressed on cells (human, UniProt P20138 18-364).
T2 construct: endogenous CD33 of human AML cell lines and blood monocytes; also called cell-expressed CD33 (Molm-13, Mv4-11, monocytes)
The test can be described thus: flow cytometry on Mv4-11 cells, fluorophore-conjugated anti-human IgG secondary antibody, MFI as fold over background (FOB).
Experimental: (§1) The cells were analyzed by flow cytometry, and fold over background values were calculated by normalizing binding MFI to the MFI of a control group in which the cells were incubated with the secondary antibody only.

Test [3] concerns the target T2, human CD33 expressed on cells. The test can be described thus: flow cytometry on Molm-13 cells, fluorophore-conjugated anti-human IgG secondary antibody, MFI as fold over background (FOB).
Experimental: as §1
For test [4], the target named is T3, human CD33 extracellular domain (human, UniProt P20138 18-259).
T3 construct: soluble monomeric ECD; also called human CD33 ECD; hCD33
The test can be described thus: SPR, Fab captured, 37C. (In general: In SPR one partner is held on a chip, and binding of the other changes the refractive index at the surface.)
Experimental: (§2) Kinetics and affinity of a series of Fab fragments of anti-CD33 antibodies with different CD33 variants (human CD33 ECD, cyno CD33 ECD, V-domain of human CD33, C-domain or human CD33 and selected CD33 SNPs) were assessed by surface plasmon resonance using Biacore 8K instrument (GE Healthcare). Anti-Fab antibody was immobilized on a CMS chip using standard amine coupling chemistry. CD33 FABs were captured on the anti-Fab chip at a density of ˜100 RU. Solutions containing different concentrations of soluble monomeric CD33 or its domains were injected over the captured FABs and control surfaces at 30 μl/min at 37° C. Surfaces were regenerated between cycles by quick injection of 10 mM glycine, pH 1.8. To obtain kinetic rate constants double-referenced data were fit to a 1:1 interaction model using Biacore 8K Evaluation software (GE Healthcare). The equilibrium binding constant KD was determined by the ratio of binding rate constants kd/kₐ.
(§3) Affinity of 29 Fab fragments binding to human and cyno CD33 ECD were assayed by Biacore analysis.

Test [5] deals with T4, cyno CD33 extracellular domain (Cynomolgus/Rhesus (cyno)).
T4 construct: soluble monomeric ECD; also called cyno CD33 ECD
The test is described as follows: SPR, Fab captured, 37C.
Experimental: as §2, §3

For test [6], the target named is T3, human CD33 extracellular domain. The test can be described thus: SPR, Fab captured, 37C. This is another data set of the same source.
Experimental: as §2
Test [7] concerns the target T5, V domain of human CD33 (human, UniProt P20138 18-139, limits assumed).
T5 construct: recombinant, fully glycosylated V domain; also called Human CD33 V domain
The test can be described thus: SPR, Fab captured, 37C.
Experimental: as §2

Test [8] has as its target T5, V domain of human CD33. The test is described as follows: SPR, Fab captured, 37C. This is another data set of the same source.
Experimental: as §2
(§4) The ability of anti-CD33 antibodies to recognize glycosylated CD33 was assayed. […] De-glycosylation status was confirmed by a shift on SDS-PAGE and MS.
The target in test [9] is T6, deglycosylated V domain of human CD33 (human, UniProt P20138 18-139, limits assumed, N-glycans removed by PNGase).
T6 construct: V domain deglycosylated by PNGase before testing; also called deglycosylated V CD33
The test can be described thus: SPR, Fab captured, 37C.
Experimental: as §2, §4

Test [10] has as its target T3, human CD33 extracellular domain. The test is described as follows: SPR, Fab captured, 37C. The source holds these as a separate data set.
Experimental: as §2, §3
Test [11] shares this target. The test can be described thus: SPR, Fab captured, 37C. The source holds these as a separate data set.
Experimental: as §2
Test [12] has as its target T5, V domain of human CD33. The test is described as follows: SPR, Fab captured, 37C. This is another data set of the same source.
Experimental: as §2
Test [13] has as its target T7, C domain of human CD33 (human, UniProt P20138 140-259, limits assumed).
T7 construct: recombinant C domain
The test is described as follows: SPR, Fab captured, 37C.
Experimental: as §2

The target of test [14] is T3, human CD33 extracellular domain. The test is described as follows: SPR, Fab captured, 37C. The source holds these as a separate data set.
Experimental: as §2
Test [15] addresses T7, C domain of human CD33. The test can be described thus: SPR, Fab captured, 37C. The source holds these as a separate data set.
Experimental: as §2

Where two headings read alike, the source gives them in different places.

B1: I07-F405L mAb (antibody, human IgG1, kappa, V domains shown)
VH: EVQLVESGGGLVQPGGSLRLSCAASGFTFGSYWMSWVRQAPGKGLEWVATIKQDGSEKSYVDSVKGRFTISRDNAKNSLYLQMNSLRAEDTAVYYCARPLNAGELDVWGQGTMVTVSS
VL: DIQMTQSPSTLSASVGDRVTITCRASQSISSWLAWYQQKPGKAPKLLIYEASSLESGVPSRFSGSGSGTEFTLTISSLQPDDFATYYCQQSQSYPPITFGGGTKVEIKR
notes: Fc variant of I07 with F405L (EU); a Lys may optionally stand at the C-terminus of the heavy chain
In the case of B1, the binding result in test [1] is recorded as “no binding”. In addition, the “EC50 (read off the curve)” value was roughly 300 ng/mL in test [2] and roughly 2000 ng/mL in test [3].

B2: ADI-11801 Fab (Fab, V domains shown)
VH: QVQLVQSGAEVKKPGASVKVSCKASGYTFSDYYMHWVRQAPGQGLEWMGMINPSWGSTSYAQKFQGRVTMTRDTSTSTVYMELSSLRSEDTAVYYCAREAADGFVGERYFDLWGRGTLVTVSS
VL: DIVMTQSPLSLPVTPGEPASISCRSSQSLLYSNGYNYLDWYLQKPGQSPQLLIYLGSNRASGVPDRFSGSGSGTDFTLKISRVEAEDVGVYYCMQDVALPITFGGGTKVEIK
notes: Fab fragment; also called Ab4
Regarding B2, the Kd in [4] amounted to 0.55 nM; in [6], 0.55 nM; in [7] it was 0.69 nM; in test [8], 0.69 nM; in test [9] it was 0.55 nM; in test [10], 0.55 nM. Besides, the Kd in test [11] is 0.55 nM; in test [12], 0.69 nM. Further, the koff in test [4] was 0.000417 s⁻¹; in test [6], 0.000417 s⁻¹; in test [7] it was 0.00125 s⁻¹; in test [8] it was 0.00125 s⁻¹; in test [9] it was 0.00115 s⁻¹; in test [10], 0.000417 s⁻¹. Further, the figures for the koff in [11] and in test [12] were 0.000417 s⁻¹ and 0.00125 s⁻¹, respectively. The kon came to 756000 M⁻¹ s⁻¹ in test [4]; 756000 M⁻¹ s⁻¹ in test [6]; 1.8e+06 M⁻¹ s⁻¹ in test [7]; 1.8e+06 M⁻¹ s⁻¹ in test [8]; 2.1e+06 M⁻¹ s⁻¹ in [9]; 756000 M⁻¹ s⁻¹ in [10]. For the same molecule, the kon in test [11] is 756000 M⁻¹ s⁻¹; in test [12], 1.8e+06 M⁻¹ s⁻¹. Moreover, the values for the binding result in test [5] and in test [13] were “no binding (tested: 100 nM)” and “no binding”, respectively.

B3: A49-F3′-TriNKET-I07 (bispecific antibody, human IgG1, kappa)
chain: DIQMTQSPSTLSASVGDRVTITCRASQSISSWLAWYQQKPGKAPKLLIYEASSLESGVPSRFSGSGSGTEFTLTISSLQPDDFATYYCQQSQSYPPITFGCGTKVEIKGGGGSGGGGSGGGGSGGGGSEVQLVESGGGLVQPGGSLRLSCAASGFTFGSYWMSWVRQAPGKCLEWVATIKQDGSEKSYVDSVKGRFTISRDNAKNSLYLQMNSLRAEDTAVYYCARPLNAGELDVWGQGTMVTVSSASDKTHTCPPCPAPELLGGPSVFLFPPKPKDTLMISRTPEVTCVVVDVSHEDPEVKFNWYVDGVEVHNAKTKPREEQYNSTYRVVSVLTVLHQDWLNGKEYKCKVSNKALPAPIEKTISKAKGQPREPRVYTLPPCRDELTKNQVSLTCLVKGFYPSDIAVEWESNGQPENNYKTTPPVLVSDGSFTLYSKLTVDKSRWQQGNVFSCSVMHEALHNHYTQKSLSLSPG
heavy: EVQLVESGGGLVKPGGSLRLSCAASGFTFSSYSMNWVRQAPGKGLEWVSSISSSSSYIYYADSVKGRFTISRDNAKNSLYLQMNSLRAEDTAVYYCARGAPMGAAAGWFDPWGQGTLVTVSSASTKGPSVFPLAPSSKSTSGGTAALGCLVKDYFPEPVTVSWNSGALTSGVHTFPAVLQSSGLYSLSSVVTVPSSSLGTQTYICNVNHKPSNTKVDKKVEPKSCDKTHTCPPCPAPELLGGPSVFLFPPKPKDTLMISRTPEVTCVVVDVSHEDPEVKFNWYVDGVEVHNAKTKPREEQYNSTYRVVSVLTVLHQDWLNGKEYKCKVSNKALPAPIEKTISKAKGQPREPQVCTLPPSRDELTENQVSLTCLVKGFYPSDIAVEWESNGQPENNYKTTPPVLDSDGSFFLYSWLTVDKSRWQQGNVFSCSVMHEALHNHYTQKSLSLSPG
light: DIQMTQSPSSVSASVGDRVTITCRASQGISSWLAWYQQKPGKAPKLLIYAASSLQSGVPSRFSGSGSGTDFTLTISSLQPEDFATYYCQQGVSFPRTFGGGTKVEIKRTVAAPSVFIFPPSDEQLKSGTASVVCLLNNFYPREAKVQWKVDNALQSGNSQESVTEQDSKDSTYSLSSTLTLSKADYEKHKVYACEVTHQGLSSPVTKSFNRGEC
notes: trispecific: I07 scFv-Fc (CD33), A49 VH-CH1-Fc and A49 VL-CL (NKG2D Fab), heterodimeric IgG1 Fc (CD16); also called TriNKET derivative of I07 mAb
Take B3: the “EC50 (read off the curve)” value in test [2] is roughly 2000 ng/mL; in test [3], roughly 5000 ng/mL.

B4: ADI-11815 Fab (Fab, V domains shown)
VH: QVQLVQSGAEVKKPGASVKVSCKASGYTFGTYYMHWVRQAPGQGLEWMGIINPSRGSTVYAQKFQGRVTMTRDTSTSTVYMELSSLRSEDTAVYYCARGAGYDDEDMDVWGKGTTVTVSS
VL: DIQMTQSPSSVSASVGDRVTITCRASQGIDSWLAWYQQKPGKAPKLLIYAASSLQSGVPSRFSGSGSGTDFTLTISSLQPEDFATYYCQQAHSYPLTFGGGTKVEIK
notes: Fab fragment; also called Ab7
As to B4, the Kd in [4], in test [6], in [10] and in [14] was 0.23 nM in each case. Further, the koff in test [4], in [6], in test [10] and in [14] was 7.91e-05 s⁻¹ throughout. Besides, the kon in [4], in [6], in [10] and in [14] was 339000 M⁻¹ s⁻¹ in each case. The binding result in test [5] is given as “no binding (tested: 100 nM)”; in test [7], “no binding”; in test [15], “no binding”.

By EC50 (read off the curve) is commonly meant the concentration needed to bring the measured effect to its halfway point. Read a high EC50 (read off the curve) as lower potency in that assay. The term Kd denotes the free concentration of one partner at which half of the binding sites on the other are occupied at equilibrium, for simple one-to-one binding. Higher therefore signals weaker binding. One may read the koff as the rate constant with which the complex falls apart. A high value points to a short-lived complex. Usually kon stands for the rate constant with which the complex forms.
